# According to patent US10508139B2, “Compound, use, anti-tumor pharmaceutical composition, gene construct for polypeptide expression, process for the production, process for the evaluation of tumor cells, method of sensitization of tumor cells to chemotherapeutic” (União Brasileira de Educaçâo e Assistência, mantendedora da …, priority 2012, dated 2019):
# Assays:
# B16F10 cells [1] = experiment: Tumor growth of B16F10 cells transiently transfected with murine HspBP1 or HspBP1 (1-136); format: in vivo, mice; details: subcutaneous, monitored for 20 days
# Description: Working with the possibility that human HspBP1 protein is recognized by the mouse immune system and that this is the reason for the tumor growth reduction, we decided to repeat the experiments using murine HspBP1. The B16F10 cells were transiently transfected with plasmid containing the sequence encoding the murine HspBP1 or […] as a control, and these cells were injected subcutaneously in the mouse thigh. Tumor growth was monitored for 20 days by measuring the volume of the thigh using a digital caliper.
# B16F10 cells (5×10^5) were transiently transfected with pcDNA4/TO plasmid alone or containing the sequence encoding HspBP1 and HspBP1 (1-136) protein and, after 24 h, were injected subcutaneously into mice. A)—Quantification of tumor growth inhibition by HspBP1 after 20 days of tumor growth (Mann-Whitney test, p<0.05). B)—Tumor-bearing mice were photographed after 20 days of tumor growth. C)—Western blot analysis showing in vitro HspBP1 and truncated HspBP1 (1-136) expression on transfected cells.
# B16F10 cells [2] = experiment: Survival of transfected B16F10 cells after heat shock; format: cell-based, murine; details: overexpression in B16F10 cells, heat shock 42° C. for 1 h
# Description: When Hsp70 is silenced in B16F10 cells using siRNA and when we submit the cells to heat shock, there is a reduction in the number of viable cells in vitro (FIG. 3).
# B—Western blot analysis of Hsp70 and actin expression in B16F10 cells, after silencing Hsp70 with siRNA. Cells were treated with control siRNA (lane 1) or Hsp70 siRNA (lane 2) and subsequently heat shocked at 42° C. for 2 hours, followed by a recovery of 37° C. for 4 h. C—Survival of B16F10 cells transiently transfected with pcDNA4/TO plasmid containing the murine HspBP1 sequence or pcDNA4/TO plasmid having murine HspBP1 (1-136) sequence; with or without heat shock at 42° C. for 1 h.
# [3] = target: T1, Hsp70 on the surface of the cells (Mus musculus, UniProt Q61696); experiment: Binding to B16F10 cells analyzed by flow cytometry; design: species or system murine; details: B16F10 cells labeled 2 hours on ice
# T1 construct: endogenous in cells; host or cells: B16F10 murine melanoma cells
# From the text: Studies have shown that Hsp70 and HspBP1 can be secreted by tumor cells (Evdonin et al., 2009) and it is well established that Hsp70 is present in human serum (Pockley et al., 1998). Our laboratory has shown that breast cancer patients had twice the HspBP1 level in their serum compared to tumor-free individuals. Furthermore, breast tumors contained HspBP1 (and Hsp70) levels that were 4 times higher than the normal adjacent tissue (Souza et al., 2009).
# Fc receptors were blocked using […], then the cells were labeled for 2 hours on ice with HspBP1 (FL) or HspBP1 (1-136). Cells were acquired on FACS Canto II cytometer (BD bioscience), and the data were analyzed using the FlowJo software (TreeStar).
# activated caspase 3 = experiment: Ex vivo activated caspase 3 Western blot of treated tumors; format: in vivo, mice; details: tumor removed 24 hours after treatment, OVA control
# Description: We performed ex vivo tests to verify that HspBP1 treatment could activate caspase 3 in melanoma. 8×10^5 cells/animals were injected and after 3 days they were treated with HspBP1 FL, HspBP1 (1-136) or OVA. After 24 hours, the tumor was removed and analyzed for activated caspase 3 by Western blot (FIG. 5).
# The 17 kDa band represents the marking of activated caspase 3.
# Hsp70 ATPase activity = Hsp70 ATPase activity (Homo sapiens, UniProt P0DMV8); details: according to Raynes et al. (2003); cited from earlier work
# B16F10 cells [4] = experiment: Chemo-sensitization of B16F10 cells to cisplatin (MTT); format: cell-based, murine; details: HspBP1 for 2 h, then cisplatin 160 ug/ml, 14 h
# Description: (§1) It was also assessed whether HspBP1 may enhance the effect of chemotherapeutic agents already used in clinical practice. The B16F10 cells were plated at a concentration of 4×10^3 cells per well in a 96 well plate in 200 ul 10% DMEM medium. After 24 h, HspBP1 was added at different concentrations in AIM-V medium, and cells were incubated for 2 h; then cisplatin was added at a concentration of 160 ug/ml. After 14 h cell viability was assessed using MTT.
# as §1, with “The” for “It was also assessed whether HspBP1 may enhance the effect of chemotherapeutic agents already used in clinical practice. The”, “14 h,” for “14 h”
# B16F10 cells [5] = experiment: Sensitization of B16F10 cells to hydrogen peroxide-induced death (MTT, annexin/propidium iodide); format: cell-based, murine; details: HspBP1 for 2 h, then hydrogen peroxide; MTT after 24 h or annexin/propidium iodide after 12 h
# Description: Since Hsp70 protects against death induced by oxidative stress—such as, for example, that induced in the treatment with hydrogen peroxide, we hypothesized that HspBP1 will sensitize tumors to death by oxidative stress, thereby enabling a tumor cell sensitization method to chemotherapeutic agents. HspBP1 was added at different concentrations with B16F10 cells cultured for 2h and then hydrogen peroxide was added. After 24 h and 12 h viability was assessed using MTT or by annexin and propidium iodide labeling to assess apoptotic cells. […] Viability was assessed using MTT after 24 hours (A) or by annexin and propidium iodide labeling after 12 h (B).
# draining lymph nodes = experiment: Draining lymph node analysis of tumors over-expressing HspBP1 (flow cytometry); format: in vivo, mice; details: 25 days of tumor growth
# Description: Furthermore, activation of dendritic cells and the number of CD4 and CD8 T cells in draining lymph nodes of tumor-bearing mice transiently over-expressing HspBP1 was evaluated. […] A—Number of CD4+ or CD8+ T cells in draining lymph nodes. B—Number of CD11c+CD86+MHCII+ cells. C—Dot plot graph showing the frequency of CD11c+, CD86 +MHC-II+ dendritic cells.
# tumor = experiment: Intravenous injections in tumor bearing mice; format: in vivo; details: circulating levels increased through intravenous injections
# From the text: The invention therefore additionally provides a new in vivo experimental model for the development of new anti-tumor agents.
# B16F10 cells [6] = experiment: Single HspBP1 treatment of B16F10 cells in culture; format: cell-based, murine; details: no added stressor
# B16F10 cells [7] = experiment: Intratumoral injection of recombinant protein in melanoma-bearing mice; format: in vivo; details: 40 ug intratumorally on days 3 and 6, monitored for 16 days, BSA control
# Description: The recombinant form of the non-natural 1-136 peptide was produced. Then melanoma-bearing mice were treated with whole protein (FL) or only with said peptide. […] 3 and 6 days later, 40 ug HspBP1, BSA or truncated HspBP1 were intratumorally injected in 100 uL PBS. Tumor growth was monitored for 16 days. Tumor sizes were measured using a caliper. Tumor volume (V) (mm3) was calculated using V=d2×D×0.5, wherein d=smaller diameter and D=larger diameter.
# B16F10 cells [8] = experiment: Growth of HspBP1-overexpressing B16F10 tumors in WT and RAG-/- mice; format: in vivo; details: for tumor size vs vector control: 25 days of tumor growth
# Description: One possibility is that the host immune system plays a role in in vivo tumor growth inhibition mediated by HspBP1. A comparison between wild WT mice (C57BL6/c) and immunodeficient mice (RAG−/−) was used to further explore the involvement of the immune system in tumor regression mediated by HspBP1 overexpression in B16F10 cells (FIG. 10).
# Tumor volume (mm3) was measured after 25 days of tumor growth (Mann-Whitney test, p <0.05).
# GL, glioma cell line = experiment: Apoptosis in GL glioma cell line (Annexin V/iodide flow cytometry); format: cell-based; details: 10 or 20 ug for 24 hours, albumin control
# Description: In vitro assays were performed to verify whether HspBP1 could induce cell death in GL, glioma cell line. 5×10^5 cells were seeded per well in a 24 well plate. Then, cells were incubated with 10 or 20 ug HspBP1 or albumin for 24 hours in DMEM containing 1% fetal bovine serum. After 24 hours, the samples were analyzed by flow cytometry using the Annexin V/iodide kit (BD).
# B16F10 cells [9] = experiment: Tetracycline-induced human HspBP1 overexpression in B16F10 tumors in mice; format: in vivo
# From the text: As part of the experimental strategy, a gene construct was designed and implemented for the Hsp70 binder expression, said construct being particularly useful for gene therapy for the treatment of mammalian tumors. Said gene construct comprises: • a sequence encoding a Hsp70 binding polypeptide; • a promoter sequence operatively linked to said encoding sequence; • said promoter and coding sequences being present on a vector or functional plasmid for expression of said polypeptide in prokaryotic or eukaryotic cells. In this context, a system was developed in which HspBP1 expression was regulated by the presence of tetracycline. B16F10 cells were stably transfected with pcDNA6/TR plasmid, the transfected clones were selected using antibiotic and then the cells were transfected with a plasmid containing the sequence encoding human HspBP1, or empty vector as a control. The HspBP1 increased expression was verified by adding tetracycline to the culture medium. […]
# The B16F10 cells were stably transfected with pcDNA6/TR and pcDNA4/TO plasmids with or without the human HspBP1 sequence. […] Quantification of tumor growth inhibition by HspBP1 (Mann-Whitney test, /d/p<0.05). Tumor volume (V) was calculated using V=d2×D×0.5, where d=smaller diameter and D=larger diameter.
# T1 sequence (Q61696 whole entry): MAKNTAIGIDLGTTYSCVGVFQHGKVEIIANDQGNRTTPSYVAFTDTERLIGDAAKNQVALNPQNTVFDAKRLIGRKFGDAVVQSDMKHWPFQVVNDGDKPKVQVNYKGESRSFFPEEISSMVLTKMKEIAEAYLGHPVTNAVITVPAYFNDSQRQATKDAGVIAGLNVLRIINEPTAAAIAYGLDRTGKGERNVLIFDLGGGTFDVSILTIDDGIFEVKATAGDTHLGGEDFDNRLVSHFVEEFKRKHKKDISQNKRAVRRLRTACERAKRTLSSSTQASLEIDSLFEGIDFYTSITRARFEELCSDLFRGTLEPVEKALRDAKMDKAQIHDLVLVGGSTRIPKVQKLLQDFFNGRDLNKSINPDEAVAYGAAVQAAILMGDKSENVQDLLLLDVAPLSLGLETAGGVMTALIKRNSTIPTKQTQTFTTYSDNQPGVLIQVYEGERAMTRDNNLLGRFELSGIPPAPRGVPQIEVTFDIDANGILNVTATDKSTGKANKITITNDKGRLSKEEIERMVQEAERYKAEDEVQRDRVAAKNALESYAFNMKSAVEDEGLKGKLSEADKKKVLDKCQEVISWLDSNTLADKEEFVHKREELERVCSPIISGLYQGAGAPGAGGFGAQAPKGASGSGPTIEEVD
# Chain of Hsp70 ATPase activity (P0DMV8 whole entry): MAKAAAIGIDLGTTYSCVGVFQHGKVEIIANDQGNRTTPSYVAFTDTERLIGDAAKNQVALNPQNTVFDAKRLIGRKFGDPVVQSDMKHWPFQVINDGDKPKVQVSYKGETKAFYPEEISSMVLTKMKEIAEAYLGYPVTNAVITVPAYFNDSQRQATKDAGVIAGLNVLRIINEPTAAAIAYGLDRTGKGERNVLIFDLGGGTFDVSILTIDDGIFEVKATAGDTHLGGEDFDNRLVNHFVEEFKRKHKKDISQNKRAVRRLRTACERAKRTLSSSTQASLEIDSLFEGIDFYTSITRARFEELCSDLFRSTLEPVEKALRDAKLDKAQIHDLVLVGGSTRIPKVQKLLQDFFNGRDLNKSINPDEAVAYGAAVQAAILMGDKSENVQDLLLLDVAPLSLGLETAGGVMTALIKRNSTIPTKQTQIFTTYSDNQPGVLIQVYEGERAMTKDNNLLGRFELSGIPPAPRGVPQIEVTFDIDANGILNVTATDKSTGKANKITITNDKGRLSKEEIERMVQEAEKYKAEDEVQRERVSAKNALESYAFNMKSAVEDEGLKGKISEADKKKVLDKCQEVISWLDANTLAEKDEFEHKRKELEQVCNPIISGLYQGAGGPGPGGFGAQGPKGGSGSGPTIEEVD
molecule,measurement,setting,value
murine HspBP1: murine HspBP1 expressed in B16F10 cells from pcDNA4/TO plasmid; 94% identical to human form,tumor growth,B16F10 cells [1],inhibits tumor growth
truncated HspBP1: non-natural peptide corresponding to amino acids 1-136 of HspBP1 (protein) MADKGSGGSRLPLALPPASQGCSSGGSGSSAGGSGNPRPPRNLQGLLQMAITAGSQEPDPPPEPMSEERRQWLQEAMSAAFRGQREEVEQMKNCLRVLSQATPAMAGEAELATDQQEREGALELLADLCENMDNAA,cell survival after heat shock,B16F10 cells [2],no changes occur in vitro
same,binding to the extracellular surface of tumor cells,[3],can bind to the extracellular surface of tumor cells
same,apoptosis in vivo (activated caspase 3),activated caspase 3,inhibits tumor growth by inducing apoptosis in vivo
same,tumor growth,B16F10 cells [1],also inhibits tumor growth
"HspBP1: Hsp70 binding co-chaperone protein, SEQ ID No: 1; species of the protein not always stated (protein, listed as Mus musculus) MADKGSGGSRLPLALPPASQGCSSGGSGSSAGGSGNPRPPRNLQGLLQMAITAGSQEPDPPPEPMSEERRQWLQEAMSAAFRGQREEVEQMKNCLRVLSQATPAMAGEAELATDQQEREGALELLADLCENMDNAA",cell survival after heat shock,B16F10 cells [2],no changes occur in vitro
same,HspBP1/Hsp70 molar ratio resulting in 50% inhibition of Hsp70 ATPase activity,Hsp70 ATPase activity,4.0
same,"effect on cisplatin-induced death (cell viability, MTT)",B16F10 cells [4],enhances the effect of cisplatin death
same,death induced by oxidative stress,B16F10 cells [5],enhances death induced by oxidative stress
same,T cell frequency in the draining lymph nodes,draining lymph nodes; CD4 and CD8 T cells,no difference in T cell frequency
same,activation of dendritic cells in the lymph node,draining lymph nodes; CD11c+CD86+MHCII+ cells,trend in the activation of dendritic cells
same,binding to the extracellular surface of tumor cells,[3],can bind to the extracellular surface of tumor cells
same,tumor growth,tumor,tumor growth was reduced
same,anti-tumor effect in culture,B16F10 cells [6],lack of an anti-tumor effect
same,tumor growth,B16F10 cells [7],Reduces Tumor Growth
same,tumor size vs vector control,B16F10 cells [8]; RAG -/- mice,"tendency to be smaller than tumors transfected with vector alone, although the difference was not significant"
same,tumor size vs vector control,B16F10 cells [8]; WT mice (C57BL6/c),significantly smaller than tumors transfected only with the vector as a control
same,"tumor size, WT vs RAG -/- mice",B16F10 cells [8]; tumors expressing HspBP1,significantly smaller in WT than in RAG −/− mice
same,frequency of apoptotic cells,"GL, glioma cell line",increase in the frequency of apoptotic cells
"human HspBP1: human HspBP1 expressed in B16F10 cells from a tetracycline-regulated plasmid (protein, UniProt Q9NZL4 1-359, looked up) Hsp70-binding protein 1: MSDEGSRGSRLPLALPPASQGCSSGGGGGGSSAGGSGNSRPPRNLQGLLQMAITAGSEEPDPPPEPMSEERRQWLQEAMSAAFRGQREEVEQMKSCLRVLSQPMPPTAGEAEQAADQQEREGALELLADLCENMDNAADFCQLSGMHLLVGRYLEAGAAGLRWRAAQLIGTCSQNVAAIQEQVLGLGALRKLLRLLDRDACDTVRVKALFAISCLVREQEAGLLQFLRLDGFSVLMRAMQQQVQKLKVKSAFLLQNLLVGHPEHKGTLCSMGMVQQLVALVRTEHSPFHEHVLGALCSLVTDFPQGVRECREPELGLEELLRHRCQLLQQHEEYQEELEFCEKLLQTCFSSPADDSMDR",average tumor volume,"B16F10 cells [9]; B16F10 stably transfected, injected subcutaneously into thigh of mice, tetracycline in drinking water, control tumors 46.9 mm^3",2.07 mm^3
same,tumor growth,B16F10 cells [9]; induced human HspBP1 overexpression vs mice without tetracycline,clearly reduced
